Residues, ends and D or L forms follow the SMILES beside them.
Key:
[1] = target: LatB-bound G-actin (rabbit skeletal muscle actin) (Oryctolagus cuniculus, UniProt P68135); assay: Fluorescence anisotropy assay of RPEL^MAL:G-actin interaction; assay type: binding; settings: ratio of Kd values from fluorescence anisotropy
[2] = target: FITC-conjugated RPEL2^MAL peptide, E130A (mouse); assay: fluorescence polarisation
[3] = target: FITC-conjugated RPEL2^MAL peptide, P126 replaced with arginine (mouse); assay: fluorescence polarisation
[4] = target: FITC-conjugated 'RPEL2-like' RPEL3^MAL peptide, G171/P172 replaced by E and R (mouse); assay: fluorescence polarisation
[5] = target: FITC-conjugated RPEL1^MAL peptide, R81A (mouse); assay: fluorescence polarisation
[6] = target: FITC-conjugated RPEL3^MAL peptide, MAL(155–186), wild type (mouse); assay: fluorescence polarisation
[7] = target: FITC-conjugated RPEL2^MAL peptide, MAL(111–142), wild type (mouse); assay: fluorescence polarisation
[8] = target: FITC-conjugated RPEL1^MAL peptide, α2^AAA mutant (mouse); assay: fluorescence polarisation
[9] = target: FITC-conjugated RPEL1^MAL peptide, MAL(67–98), wild type (mouse); assay: fluorescence polarisation
[10] = target: FITC-conjugated RPEL2^MAL peptide, P126A (mouse); assay: fluorescence polarisation
[11] = target: FITC-conjugated RPEL1^MAL peptide, R81 and R82 both to alanine (mouse); assay: fluorescence polarisation
[12] = target: FITC-conjugated RPEL1^MAL peptide, alanine at R82 (the position of the conserved RPEL proline) (mouse); assay: fluorescence polarisation
[13] = target: FITC-conjugated RPEL1^MAL peptide, E86A (mouse); assay: fluorescence polarisation

| Fold reduction of actin-binding affinity relative to the wild-type peptide [1] | Kd [2] | Kd [3] | Kd [4] | Kd [5] | Kd [6] | Kd [7] | Kd [8] | Kd [9] | Kd [10] | Kd [11] | Kd [12] | Kd [13] | Molecule |
| --- | --- | --- | --- | --- | --- | --- | --- | --- | --- | --- | --- | --- | --- |
| 16 fold |  |  |  |  |  |  |  |  |  |  |  |  | CC[C@H](C)[C@H](NC(=O)[C@H](CCCCN)NC(=O)[C@H](CCCNC(=N)N)NC(=O)[C@H](CCCCN)NC(=O)[C@H](CC(C)C)NC(=O)[C@H](Cc1ccc(O)cc1)NC(=O)[C@H](CC(=O)O)NC(=O)[C@H](CCC(=O)O)NC(=O)[C@@H](NC(=O)[C@H](CCCNC(=N)N)NC(=O)[C@H](C)NC(=O)[C@H](CCCNC(=N)N)NC(=S)Nc1ccc2c(c1)C(=O)OC21c2ccc(O)cc2Oc2cc(O)ccc21)[C@@H](C)O)C(=O)N[C@@H](CCCNC(=N)N)C(=O)N[C@@H](CO)C(=O)N[C@@H](CCCNC(=N)N)C(=O)N[C@@H](C)C(=O)N[C@@H](CCC(=O)O)C(=O)N[C@@H](CCCNC(=N)N)C(=O)N[C@@H](C)C(=O)N[C@@H](CCC(=O)O)C(=O)N[C@@H](CC(C)C)C(=O)N[C@H](C(=O)N[C@@H](CCCNC(=N)N)C(=O)N[C@@H](CCSC)C(=O)N[C@@H](Cc1c[nH]cn1)C(=O)N[C@H](C(=O)N[C@@H](CC(C)C)C(=O)N[C@@H](CCC(=O)O)C(=O)N[C@@H](CCC(=O)O)C(=O)N[C@H](C(=O)N[C@@H](CO)C(=O)N[C@@H](C)C(=O)O)[C@@H](C)O)[C@@H](C)CC)C(C)C [RPEL2 P126A] (HELM PEPTIDE1{[O=C1OC2(c3ccc(O)cc3Oc3cc(O)ccc32)c2ccc(NC(=S)[*:2])cc21].R.A.R.T.E.D.Y.L.K.R.K.I.R.S.R.A.E.R.A.E.L.V.R.M.H.I.L.E.E.T.S.A}$$$$V2.0; C-terminus assumed) |
|  | 1.9 µM | 19.5 µM | 4.8 µM | 17.7 µM | 28.9 µM | 1.9 µM | 24 µM | 1 µM | 30.8 µM | 44.5 µM | 3.7 µM | 2.7 µM | rabbit skeletal muscle G-actin bound to latrunculin B (LatB) and ATP (from UniProt P68135 1-377) (natural protein) |
| 3.5 fold |  |  |  |  |  |  |  |  |  |  |  |  | CC[C@H](C)[C@H](NC(=O)CNC(=O)[C@H](CCC(N)=O)NC(=O)[C@H](CO)NC(=O)[C@@H](NC(=O)[C@H](CC(C)C)NC(=O)[C@H](CCC(=O)O)NC(=O)[C@H](CCC(=O)O)NC(=O)[C@H](CCCNC(=N)N)NC(=O)[C@@H](NC(=O)[C@H](C)NC(=O)[C@H](CCCNC(=N)N)NC(=O)[C@H](CCC(N)=O)NC(=O)[C@H](CCC(N)=O)NC(=O)[C@H](CC(C)C)NC(=O)[C@H](CCCCN)NC(=O)[C@H](CC(C)C)NC(=O)[C@H](CCC(N)=O)NC(=O)[C@H](CC(C)C)NC(=O)[C@@H](NC(=O)[C@H](CC(N)=O)NC(=O)[C@H](CCCCN)NC(=O)[C@H](CCCNC(=N)N)NC(=O)[C@H](CCC(=O)O)NC(=O)[C@H](CO)NC(=O)[C@H](CC(C)C)NC(=S)Nc1ccc2c(c1)C(=O)OC21c2ccc(O)cc2Oc2cc(O)ccc21)C(C)C)[C@@H](C)O)C(C)C)C(=O)N[C@@H](CCSC)C(=O)N1CCC[C@H]1C(=O)N1CCC[C@H]1C(=O)N[C@@H](CC(C)C)C(=O)N[C@@H](CCCCN)C(=O)N[C@@H](CO)C(=O)O [RPEL1 R82A] (HELM PEPTIDE1{[O=C1OC2(c3ccc(O)cc3Oc3cc(O)ccc32)c2ccc(NC(=S)[*:2])cc21].L.S.E.R.K.N.V.L.Q.L.K.L.Q.Q.R.A.T.R.E.E.L.V.S.Q.G.I.M.P.P.L.K.S}$$$$V2.0; C-terminus assumed) |

— PMC2583105 (The EMBO Journal, 2008)
